Measured values as given in patent US20110305629A1.

Key:
[1] = target: human αvβ6 integrin on cells (human) (UniProt P06756); assay: cell-based or functional assay
[2] = target: rhesus monkey αvβ6 integrin on 4MBr5 cells (rhesus monkey) (UniProt H9ETF2); assay: cell-based or functional assay
[3] = target: rhesus monkey αvβ6 integrin on 4MBr5 cells (rhesus monkey) (UniProt H9ETF2); assay: flow cytometry titration on 4MBr5 cells; given as ED50
[4] = target: African green monkey αvβ6 integrin on 12MBr6 cells (African green monkey); assay: flow cytometry titration on 12MBr6 cells; given as ED50
[5] = target: human αvβ6 integrin on cells (human) (UniProt P06756); assay: cell adhesion assay: SCC-14 cells to LAP, inhibition by m3G9
[6] = target: human αvβ6 integrin on cells (human) (UniProt P06756); assay: cell adhesion assay: SW480β6 cells to LAP, inhibition by m3G9
[7] = target: human αvβ6 integrin on cells (human) (UniProt P06756); assay: cell adhesion assay: Detroit562 cells to LAP, inhibition by m3G9
[8] = target: rhesus monkey αvβ6 integrin on 4MBr5 cells (rhesus monkey) (UniProt H9ETF2); assay: cell adhesion assay: labelled 4MBr5 cells on LAP-coated plate, inhibition by m3G9
[9] = target: African green monkey αvβ6 integrin on 12MBr6 cells (African green monkey); assay: cell adhesion assay: labelled 12MBr6 cells on LAP-coated plate, inhibition by m3G9
[10] = target: rhesus monkey αvβ6 integrin on 4MBr5 cells (rhesus monkey) (UniProt H9ETF2); assay: cell adhesion assay: 4MBr5 cells to LAP; the text gives the cell lines the other way round than the table
[11] = target: African green monkey αvβ6 integrin on 12MBr6 cells (African green monkey); assay: cell adhesion assay: 12MBr6 cells to LAP; the text gives the cell lines the other way round than the table
[12] = target: rhesus monkey αvβ6 integrin on 4MBr5 cells (rhesus monkey) (UniProt H9ETF2); assay: flow cytometry titration on 4MBr5 cells; given as ED50; the text gives the cell lines the other way round than the table
[13] = target: African green monkey αvβ6 integrin on 12MBr6 cells (African green monkey); assay: flow cytometry titration on 12MBr6 cells; given as ED50; the text gives the cell lines the other way round than the table
[14] = target: αvβ6 (UniProt P06756); assay: binding ELISA; murine secondary
Sequence of αvβ6 (P06756 31-992, chain 1 of 2): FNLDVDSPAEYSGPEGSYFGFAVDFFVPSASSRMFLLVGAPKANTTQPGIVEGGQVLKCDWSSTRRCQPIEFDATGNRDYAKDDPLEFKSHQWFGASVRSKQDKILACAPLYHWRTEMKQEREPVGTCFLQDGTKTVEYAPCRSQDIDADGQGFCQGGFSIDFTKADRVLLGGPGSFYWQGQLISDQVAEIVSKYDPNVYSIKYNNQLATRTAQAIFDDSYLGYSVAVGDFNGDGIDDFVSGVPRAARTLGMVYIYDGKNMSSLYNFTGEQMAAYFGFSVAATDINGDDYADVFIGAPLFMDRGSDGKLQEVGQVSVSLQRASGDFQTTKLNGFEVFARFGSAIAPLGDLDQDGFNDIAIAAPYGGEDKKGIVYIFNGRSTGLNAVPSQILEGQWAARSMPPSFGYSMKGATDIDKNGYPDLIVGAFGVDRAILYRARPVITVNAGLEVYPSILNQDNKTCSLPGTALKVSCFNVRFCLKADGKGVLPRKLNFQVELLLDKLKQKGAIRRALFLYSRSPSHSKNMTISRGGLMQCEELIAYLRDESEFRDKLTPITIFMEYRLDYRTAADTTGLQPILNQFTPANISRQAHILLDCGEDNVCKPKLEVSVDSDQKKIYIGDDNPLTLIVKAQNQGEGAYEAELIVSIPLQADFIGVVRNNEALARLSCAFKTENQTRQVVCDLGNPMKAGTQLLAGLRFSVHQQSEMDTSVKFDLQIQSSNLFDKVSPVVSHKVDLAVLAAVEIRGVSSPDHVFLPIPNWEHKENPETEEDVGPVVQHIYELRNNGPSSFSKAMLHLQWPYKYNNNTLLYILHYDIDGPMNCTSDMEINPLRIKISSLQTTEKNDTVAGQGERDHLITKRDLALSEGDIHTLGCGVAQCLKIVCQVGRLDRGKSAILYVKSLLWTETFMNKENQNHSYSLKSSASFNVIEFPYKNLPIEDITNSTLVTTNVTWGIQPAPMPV
Sequence of αvβ6 (P18564 22-709, chain 2 of 2, further chain): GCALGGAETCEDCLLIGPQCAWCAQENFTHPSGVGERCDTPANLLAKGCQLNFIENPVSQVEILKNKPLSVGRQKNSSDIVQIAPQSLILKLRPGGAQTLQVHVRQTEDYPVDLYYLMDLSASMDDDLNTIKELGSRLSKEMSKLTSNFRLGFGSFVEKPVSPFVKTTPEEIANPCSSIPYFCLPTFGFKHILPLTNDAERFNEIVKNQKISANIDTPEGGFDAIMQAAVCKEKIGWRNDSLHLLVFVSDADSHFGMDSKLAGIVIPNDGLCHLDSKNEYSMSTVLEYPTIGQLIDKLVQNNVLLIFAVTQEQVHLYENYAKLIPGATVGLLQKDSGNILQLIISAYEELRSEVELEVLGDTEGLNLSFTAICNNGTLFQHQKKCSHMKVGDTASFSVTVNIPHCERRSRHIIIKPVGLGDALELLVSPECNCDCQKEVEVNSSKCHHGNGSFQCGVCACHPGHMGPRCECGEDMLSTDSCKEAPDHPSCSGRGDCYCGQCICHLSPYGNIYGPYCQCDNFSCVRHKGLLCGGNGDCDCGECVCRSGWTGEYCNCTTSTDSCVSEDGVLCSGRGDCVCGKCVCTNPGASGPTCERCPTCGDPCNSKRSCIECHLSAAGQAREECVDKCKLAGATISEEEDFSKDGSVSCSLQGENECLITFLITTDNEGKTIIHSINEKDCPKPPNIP

Sequence of human αvβ6 integrin on cells (human) (P06756 31-1048, chain 1 of 2): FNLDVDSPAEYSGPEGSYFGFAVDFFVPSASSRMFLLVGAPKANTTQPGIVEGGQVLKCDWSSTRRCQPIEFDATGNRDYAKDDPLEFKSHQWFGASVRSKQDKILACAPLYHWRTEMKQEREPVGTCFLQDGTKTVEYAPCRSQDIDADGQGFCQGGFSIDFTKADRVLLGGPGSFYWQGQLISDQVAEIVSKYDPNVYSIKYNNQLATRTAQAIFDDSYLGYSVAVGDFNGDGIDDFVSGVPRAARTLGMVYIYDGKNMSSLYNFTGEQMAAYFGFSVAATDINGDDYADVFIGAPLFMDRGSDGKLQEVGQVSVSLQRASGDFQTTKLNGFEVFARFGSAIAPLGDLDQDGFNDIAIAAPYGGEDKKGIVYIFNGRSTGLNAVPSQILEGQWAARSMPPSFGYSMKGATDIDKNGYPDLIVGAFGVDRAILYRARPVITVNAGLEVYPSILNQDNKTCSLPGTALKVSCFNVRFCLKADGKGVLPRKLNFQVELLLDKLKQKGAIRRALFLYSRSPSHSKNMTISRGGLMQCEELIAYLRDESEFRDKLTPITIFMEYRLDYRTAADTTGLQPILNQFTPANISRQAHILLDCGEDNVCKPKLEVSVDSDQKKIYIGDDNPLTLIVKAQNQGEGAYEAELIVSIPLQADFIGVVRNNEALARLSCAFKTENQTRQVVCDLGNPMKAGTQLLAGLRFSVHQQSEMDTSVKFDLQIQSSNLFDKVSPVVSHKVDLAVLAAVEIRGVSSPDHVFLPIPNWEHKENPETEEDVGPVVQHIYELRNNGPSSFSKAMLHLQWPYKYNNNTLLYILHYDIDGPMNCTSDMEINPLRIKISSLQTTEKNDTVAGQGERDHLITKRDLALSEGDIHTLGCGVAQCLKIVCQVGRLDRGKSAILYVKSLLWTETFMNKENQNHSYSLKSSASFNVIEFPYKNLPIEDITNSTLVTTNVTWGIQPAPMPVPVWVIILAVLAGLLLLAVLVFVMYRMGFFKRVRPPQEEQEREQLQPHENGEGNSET
Sequence of human αvβ6 integrin on cells (human) (P18564 22-788, chain 2 of 2, further chain): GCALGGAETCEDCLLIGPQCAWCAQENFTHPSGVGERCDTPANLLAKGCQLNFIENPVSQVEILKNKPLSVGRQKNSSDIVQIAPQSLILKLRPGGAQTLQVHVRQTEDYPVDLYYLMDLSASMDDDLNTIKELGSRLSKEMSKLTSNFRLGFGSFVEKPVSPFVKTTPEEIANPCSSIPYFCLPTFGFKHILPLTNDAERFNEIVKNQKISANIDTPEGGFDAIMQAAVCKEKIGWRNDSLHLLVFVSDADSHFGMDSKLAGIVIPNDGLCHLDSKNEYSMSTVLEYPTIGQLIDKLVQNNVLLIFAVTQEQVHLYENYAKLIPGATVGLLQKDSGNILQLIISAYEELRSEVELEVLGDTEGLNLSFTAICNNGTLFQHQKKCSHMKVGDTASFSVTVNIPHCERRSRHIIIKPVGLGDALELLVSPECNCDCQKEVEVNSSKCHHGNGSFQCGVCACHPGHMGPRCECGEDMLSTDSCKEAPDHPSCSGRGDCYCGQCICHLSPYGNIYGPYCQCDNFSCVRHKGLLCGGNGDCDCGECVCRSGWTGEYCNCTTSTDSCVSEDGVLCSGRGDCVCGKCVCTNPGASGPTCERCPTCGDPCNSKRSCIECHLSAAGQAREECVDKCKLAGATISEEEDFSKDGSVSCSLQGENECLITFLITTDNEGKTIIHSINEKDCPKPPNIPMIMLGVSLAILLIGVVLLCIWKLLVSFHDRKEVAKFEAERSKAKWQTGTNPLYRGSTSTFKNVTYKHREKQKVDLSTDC

Coculture IC50, µg/mL (TGFβ activation by SW480β6 cells, TMLC luciferase reporter cells) [1] [µg/mL]	IC50, coculture assay (SW480β6) [1] [µg/mL]	Coculture IC50, µg/mL (TGFβ activation by 4MBr5 cells, TMLC luciferase reporter cells) [2] [µg/mL]	IC50, coculture assay (4MBr5) [2] [µg/mL]	EC50 [3] [µg/mL]	EC50 [4] [µg/mL]	IC50 [5] [µg/mL]	IC50 [6] [µg/mL]	IC50 [7] [µg/mL]	IC50 [8] [µg/mL]	IC50 [9] [µg/mL]	IC50 [10] [µg/mL]	IC50 [11] [µg/mL]	EC50 [12] [µg/mL]	EC50 [13] [µg/mL]	EC50 [14] [µg/mL]	Substance
0.37	0.24	0.31	0.4	0.3	0.38	0.16	0.03	0.04	0.22	0.29	0.29	0.22	0.38	0.3	–	murine monoclonal antibody 6.3G9
–	–	–	–	–	–	–	–	–	–	–	–	–	–	–	0.021	m3G9 (murine secondary)
